From patent US20250353908A1 (ARCELLX, published 2025)

Biological target: T1, CS1-Fc (human, UniProt Q9NQ25 23-226)
T1 construct: also called recombinant human CS1-Fc; CS1-Fc polypeptide; not shown: Fc portion of CS1-Fc
T1 sequence: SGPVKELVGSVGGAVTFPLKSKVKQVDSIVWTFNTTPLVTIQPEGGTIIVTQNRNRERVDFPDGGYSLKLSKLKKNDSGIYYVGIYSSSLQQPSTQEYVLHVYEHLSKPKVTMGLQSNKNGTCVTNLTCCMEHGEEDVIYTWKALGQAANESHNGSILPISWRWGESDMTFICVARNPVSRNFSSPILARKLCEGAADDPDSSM
Assay: SPR (Biacore), adapter protein DD-GS linker-Q26, CS1-Fc target
Text: One or more of the above discussed methods were used to identify the SEQ ID NO: 41-47, 49-61, 91-93 and 96-106 variant CS1 specific D domains. […] In addition to binding human CS1, the CS1DD03, CSDD006 and CS1DD007 D domains are cross-reactive with cyno/rhesus CS1.

- Kd: 16 nM
B1: CS1DD021 adapter protein of the format DD-GS linker-Q26 (designed binder)
chain: MGSWDEFNQRLGAFEERLQALGGSEAELAALEKEIAAFESELQAYKGKGNPEVEFLRWYADGIRWELQAYRHN
